Source: the supplement of paper PMC6755084

B1: minF1; a variant is named by its letters at N, in order (parent)
chain: GAGACCGCAACTGAAAAGTTGTTNNNNAANNNNGGNTNNATTTCTGCACGTAGAAGCAAAAGGC

Variants of: B1
Experiment: fraction ligated after 30 min (ligated reads / total reads); higher = more ligase activity
Details: with F1*subA RNA substrate (template-directed ligation), 42 °C
Protocol: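 Chip-synthesised pool of minF1 ligase ribozyme variants (single and double substitutions, single to quadruple deletions, bulge and P2 designed variants) was transcribed with T7 and reacted as a pool with excess substrate F1*subA for 30 min at 42 C in 50 mM EPPS pH 8.5, 25 mM MgCl2. Ligated and unligated RNAs were separated by PAGE, barcoded by RT and deep sequenced; fraction ligated = ligated reads / total reads, relative activity = FL / FL of wild-type minF1 (0.76); sequencing FL correlated with PAGE (R2 = 0.98). Sequences are the DNA template of the ribozyme.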
With ATCAAGGTGTG A28G the fraction ligated was 0.0012.
For ATCAAGGAGTT A28G G34T T37G, the fraction ligated was 0.00162.
For ATCAAATGGTG A28G, the fraction ligated was 0.00534.
ATCAGGATTGA A29T gave a fraction ligated of 0.00634.
ATAGGGATGTA gave a fraction ligated of 0.0024.
Variant ATAGGGATGTG has a fraction ligated of 0.00618.
ATCAAGGAGTG G34T gave a fraction ligated of 0.00633.
In the case of ATAGGGATGTA A29T, the fraction ligated is reported as 0.00166.
ATCAATATTGA A28G was tested, and the fraction ligated was 0.00433.
With ATCAAATGGTA A28G G34A the fraction ligated was 0.00267.
ATCAAATGGTA A28G G34T showed a fraction ligated of 0.00212.
For ATCAAAGAGTA A28G G34T, the fraction ligated was 0.00276.
Variant ATCAGGATGTG A28G A29T has a fraction ligated of 0.00377.
ATCAATGGTGA gave a fraction ligated of 0.0039.
With ATCAGGATGTA the fraction ligated was 0.00297.
ATCAGGATGTG gave a fraction ligated of 0.00943.
For TGAAGGATTGA T23A A29T, the fraction ligated was 0.00566.
For ATCAAGGGTGA, the fraction ligated was 0.00247.
ATAATGTGTGA gave a fraction ligated of 0.00221.
For ATCAAAGGGTA A28G G34A, the fraction ligated was 0.00347.
Variant ATCAAAGGGTA A28G G34T has a fraction ligated of 0.00211.
ATCAAAGAGTA A28G was tested, and the fraction ligated was 0.0017.
With ATAGAGATTGA the fraction ligated was 0.0019.
In the case of ATCAATGGGTT G34A G35T T37G A40G, the fraction ligated is reported as 0.00189.
In the case of AGAAGGATGTG T23C A29T, the fraction ligated is reported as 0.00819.
With ATCAATGGGTT G34T T37G the fraction ligated was 0.00279.
With ATCAAGATGTG A28G the fraction ligated was 0.0128.
Variant ATCAAAGGGTT A28G G34T T37G A40G has a fraction ligated of 0.000216.
Variant ATCAAGGATGA A28G has a fraction ligated of 0.000468.
Work on ATCAAATGGGT A28G G35A T37G A40T yielded a fraction ligated of 0.00114.
ATCAATGGGTG A28G gave a fraction ligated of 0.00414.
ATAATGATGTG was tested, and the fraction ligated was 0.00571.
Variant ATAATGATGTA has a fraction ligated of 0.00361.
ATCAGGAGTGA A28G gave a fraction ligated of 0.0026.
For ATAGATAGTGA, the fraction ligated was 0.00268.
For ATAGAGGGTGA, the fraction ligated was 0.00176.
ATCAATGGGTT G34A T37G showed a fraction ligated of 0.001.
For TGAAGGATGTG T23A A29T, the fraction ligated was 0.00766.
For ATAATGGAGTT G34T T37G A40G, the fraction ligated was 0.00113.
With ATCAGGATGTG A29T the fraction ligated was 0.0272.
CGAAGATGTGA T23A A29G gave a fraction ligated of 0.00107.
Variant CGAAGATGTGA T23A A29T has a fraction ligated of 0.00299.
With ATCAAATGGTT A28G G35A T37G the fraction ligated was 0.00104.
ATCAATGAGTT G34T T37G A40G showed a fraction ligated of 0.00152.
With TGAAGGATTGA A29T the fraction ligated was 0.0036.
ATCAATGGGTT G34T T37G A40G showed a fraction ligated of 0.00223.
For ATAATGGTGTA, the fraction ligated was 0.00235.
With ATAATGGTGTG the fraction ligated was 0.00419.
With ATAGAGGAGTA G34T the fraction ligated was 0.00281.
ATCAAGGAGTG gave a fraction ligated of 0.00548.
Variant ATCAAGGAGTA has a fraction ligated of 0.00502.
ATCAATATTGA was tested, and the fraction ligated was 0.00211.
In the case of ATCAATGAGTG G34T, the fraction ligated is reported as 0.00509.
In the case of ATAGTGGTTGA, the fraction ligated is reported as 0.0023.
For ATAGTGGAGTT G34T T37G A40G, the fraction ligated was 0.000271.
Variant ATAGATGGGTG has a fraction ligated of 0.00885.
Work on ATAGATGGGTA yielded a fraction ligated of 0.00171.
Variant TGAAGATGTGA T23A A29T has a fraction ligated of 0.00202.
In the case of TGAAGATGTGA T23A A29G, the fraction ligated is reported as 0.00128.
Work on ATAGTGGAGTG G34T yielded a fraction ligated of 0.0109.
For ATCAAATGTGA A28G, the fraction ligated was 0.00482.
AGAAGGATGTG A29T gave a fraction ligated of 0.00505.
Work on ATAGATGTGTG yielded a fraction ligated of 0.00629.
ATAGATGTGTA showed a fraction ligated of 0.00402.
In the case of ATCAAGATGTA A28G, the fraction ligated is reported as 0.00207.
ATAGATGAGTT G34T T37G A40G was tested, and the fraction ligated was 0.00153.
Variant ATCAAAAGTGA A28G has a fraction ligated of 0.00266.
ATAATATGTGA gave a fraction ligated of 0.00335.
With ATAGATGGGGT G34A G35T T37G A40T the fraction ligated was 0.00172.
For ATCAAATTTGA A28G, the fraction ligated was 0.00721.
ATCAGATGTGA A28G gave a fraction ligated of 0.00527.
ATCAAGGAGTG A28G showed a fraction ligated of 0.00589.
TGAAGATGTGA A29T gave a fraction ligated of 0.00283.
For TGAAGATGTGA A29G, the fraction ligated was 0.00286.
ATCAAGGTTGA A28G was tested, and the fraction ligated was 0.00202.
Work on AGAAGGAGTGA T23C A29T yielded a fraction ligated of 0.0019.
Variant ATCAGGATGTA A28G A29T has a fraction ligated of 0.00157.
ATCAAGTGTGA A28G gave a fraction ligated of 0.00275.
In the case of ATCAAATGGTT A28G G35T T37G A40G, the fraction ligated is reported as 0.00187.
Work on ATCAAAGTGTA A28G yielded a fraction ligated of 0.00412.
Work on ATCAATTGTGA A28G yielded a fraction ligated of 0.00238.
ATAGAGGAGTA was tested, and the fraction ligated was 0.00256.
With ATAGAGGAGTG the fraction ligated was 0.00449.
